Test results as given in US6140466, “Zinc finger protein derivatives and methods therefor” (The Scripps Research Institute).

Tests used:
(C7 finger)x3 = (C7 finger)x3 (synthetic (Zif268 variant)); assay: SPR; settings: hairpin
MBP-C7 = MBP-C7 (synthetic (Zif268 variant, mouse), UniProt P08046); assay: EMSA; 0.1 mM ZnCl2, RT
TFIIIA zf1-3 = TFIIIA zf1-3 (UniProt P03001 P03001:33-123); assay: EMSA; ambient temperature; complete 23 bp sequence not given; settings: tags: first three zinc fingers of TFIIIA; label: 32P
Sequence of TFIIIA zf1-3 (P03001 33-123, one chain of several): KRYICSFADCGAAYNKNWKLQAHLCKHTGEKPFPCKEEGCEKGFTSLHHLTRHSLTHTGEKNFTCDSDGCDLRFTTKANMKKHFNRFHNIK
Description: An experiment was designed to determine whether the binding of this polypeptide to its recognition sequence, placed close to an active RNA polymerase promoter, would inhibit the activity of that promoter in vitro. The following experiments were done to provide such a test system. A 23 bp oligonucleotide (Liao, et al., 1992, supra) containing the 13 bp recognition sequence for zf1–3 was cloned into the polylinker region of plasmid pBluescript SK+ (Stratagene, La Jolla, Calif.), near the promoter sequence for T7 RNA polymerase. The parent plasmid was digested with the restriction enzyme EcoRV and, after dephosphorylation with calf intestinal alkaline phosphatase, the phosphorylated 23 bp oligonucleotide was inserted by ligation with T4 DNA ligase. The ligation product was used for transformation of DH5α *E. coli* cells. Clones harboring 23 bp inserts were identified by restriction digestion of miniprep DNA. The success of cloning was also verified by DNA sequence analysis. The DNA binding activity of the preparation of recombinant zf1–3 was also determined by gel mobility shift analysis with a 56 bp radiolabeled EcoRI/XhoI restriction fragment derived from the cone containing the binding site for zf1–3 and with the radiolabeled 23 bp oligonucleotide. Gel shift assays were done as described (Liao, et al., supra; Fried, et al., *Nucl. Acids., Res.,* 9:6505, 1981). […]

Zif268 fingers 1-3 = Zif268 fingers 1-3 (Mus musculus, UniProt P08046 SEQ:1-91); assay: SPR; zinc buffer (90 uM ZnCl2, 5 mM DTT); Kd from kon/koff
Zif268 variant C7 = Zif268 variant C7 (synthetic (Zif268 variant, mouse), UniProt P08046); assay: SPR; 5-fold slower dissociation; Kd in FIG. 11 only

Sequence of (C7 finger)x3 (synthetic (Zif268 variant)) (chain, as listed by the source): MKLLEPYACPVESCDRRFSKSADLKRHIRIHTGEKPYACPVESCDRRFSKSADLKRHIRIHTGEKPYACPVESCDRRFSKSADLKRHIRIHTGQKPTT

B1: GCG-GCG-GCG hairpin (structured_DNA)
DNA: CCTCGCCGCCGCGGGTTTTCCCGCGCCCCCGAGG
Kd ((C7 finger)x3): 9 nM

B2: C7 site probe (dsDNA)
DNA 1: GATGTATGTAGCGTGGGCGTAAGTAATGC
DNA 2: GCATTACTTACGCCCACGCTACATACATC
Kd (MBP-C7): 31.8 nM

B3: zf1-3 binding site oligo (23 bp containing 13 bp site) (dsDNA)
DNA 1: TGGATGGGAGACC
DNA 2: GGTCTCCCATCCA
binding result (TFIIIA zf1-3): binds

B4: Z268N consensus hairpin (structured_DNA)
DNA: CCTGCGTGGGCGCCCTTTTGGGCGCCCACGCAGG
Kd (Zif268 fingers 1-3): 6.5 nM | binding signal (Zif268 variant C7): 13 fold tighter than Zif268
